Measurements reported in PMC3631186.

How the values were obtained:
[1] = biological target: C-terminal domain (CTD) of BMJ4 p24 (HIV-1 strain BMJ4 (subtype C)); assay: non-reducing SDS-PAGE; C-terminal domain of BMJ4 p24 in non-reducing condition
[2] = biological target: HIV-1 p24 capsid protein from the BMJ4 strain (recombinant, full-length) (HIV-1 strain BMJ4 (subtype C)); assay: crystal structure
[3] = biological target: HIV-1 p24 capsid protein from the BMJ4 strain (recombinant, full-length) (HIV-1 strain BMJ4 (subtype C)); assay: SEC; analytic gel filtration, G5000PWxl column in phosphate-buffered saline pH 7.4, 0.5 ml/min, Agilent1200 HPLC
[4] = biological target: HIV-1 p24 capsid protein from the BMJ4 strain (recombinant, full-length) (HIV-1 strain BMJ4 (subtype C)); assay: AUC; sedimentation velocity, 0.9 mg/ml in phosphate-buffered saline pH 7.4, 20°C, 45,000 rpm; c(s) scaled to c(M)
[5] = biological target: HIV-1 p24 capsid protein from the BMJ4 strain (recombinant, full-length) (HIV-1 strain BMJ4 (subtype C)); assay: non-reducing SDS-PAGE; recombinant p24 proteins; loading buffer with 0.1% SDS, no BME, sample not boiled; called native gel in the text
[6] = biological target: p24 of HIV-1 MJ4 virus (from the infectious clone) (HIV-1 strain BMJ4 (subtype C)); assay: non-reducing SDS-PAGE

For “C-terminal domain (CTD) of BMJ4 p24 (domain or fragment)”, which stoichiometry N [1] is on record?
The stoichiometry N was 2.

“HIV-1 p24 capsid protein from the BMJ4 strain (recombinant, full-length) (natural protein)” was tested. Which stoichiometry N [2] did it give?
The stoichiometry N was 2.

What about the stoichiometry N [3] of the same substance?
Its stoichiometry N is 2.

What about the stoichiometry N [4] of the same substance?
Its stoichiometry N is 2.

What about the stoichiometry N [5] of the same substance?
The stoichiometry N was 2.

For “p24 of HIV-1 MJ4 virus (from the infectious clone) (natural protein)”, which stoichiometry N [6] is on record?
The stoichiometry N was 2.
